Results from US20250243290A1.
Where “and” joins values, the source holds several entries; their conditions need not be identical. Equal entries are not always repeated. Where two headings read alike, the source gives them in different places.

Key:
Assay in all cases: peptide-array ELISA [Con't]
[1] = biological target: DI2…
2LSCGSR2…2T = biological target: 2LSCGSR2…2T
…2R = biological target: …2R
[2] = biological target: 2LS2…2…
[3] = biological target: QEGCRL2…
2…2TREQNRIC = biological target: 2…2TREQNRIC
V2…2NV = biological target: V2…2NV
[4] = biological target: KQEGCRL2…2…
[5] = biological target: …2…
…2…, sequence (peptide, as listed by the source): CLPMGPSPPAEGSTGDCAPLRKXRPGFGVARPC

S2…2RPGW = biological target: S2…2RPGW
KQEG2…2APGTFSN = biological target: KQEG2…2APGTFSN
[6] = biological target: CNASMDAV2…2…
LS2…2…2 = biological target: LS2…2…2
NRI2…2RL = biological target: NRI2…2RL
2TREQNRI2…2RL = biological target: 2TREQNRI2…2RL
[7] = biological target: WVPE2…
[8] = biological target: C2LS2GSR2…2…
[9] = biological target: PE2LSCGSR2…
…2LS2…2TSTSPTRC = biological target: …2LS2…2TSTSPTRC
[10] = biological target: E2LSCGSR2…
[11] = biological target: CQTAQM22SK2SPGQHCQA2TREQNRI2T2RPC
CGSR2…2 = biological target: CGSR2…2
[12] = biological target: C22SK2…2CAPLRK2…
CTV2DS2…2TSTSPTRC = biological target: CTV2DS2…2TSTSPTRC
[13] = biological target: 2…
[14] = biological target: C22SK2…2CAV2…
CG2RL2APLRK2…22SK2C = biological target: CG2RL2APLRK2…22SK2C
2LS2…2R = biological target: 2LS2…2R
…22SK2CNASMDAV2TSTSPTRC = biological target: …22SK2CNASMDAV2TSTSPTRC
[15] = biological target: C22SK2…2CNASMDAV2TSTSPTRC
[16] = biological target: Y2…
Y2…, sequence (peptide, as listed by the source): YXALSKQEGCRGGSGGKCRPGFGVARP

[17] = biological target: LSCGSR2…
LSCGSR2…, sequence (peptide, as listed by the source): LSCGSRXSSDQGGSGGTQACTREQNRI

CTSSTDI2RPHQI2…2TSTSPTRC = biological target: CTSSTDI2RPHQI2…2TSTSPTRC
…2SK2SPGQ [18] = biological target: …2SK2SPGQ
…2TSTSPTRC [19] = biological target: …2TSTSPTRC
…2N = biological target: …2N
…2N, sequence (peptide, as listed by the source): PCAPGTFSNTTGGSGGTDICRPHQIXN

CQA2TREQNRI2T2…2RLC = biological target: CQA2TREQNRI2T2…2RLC
CQTAQM22SK2…2TSTSPTRC = biological target: CQTAQM22SK2…2TSTSPTRC
[20] = biological target: DVV2…
…2TREQNRI2T2RPC = biological target: …2TREQNRI2T2RPC
QNRI2…2R = biological target: QNRI2…2R
[21] = biological target: C22SK2…2CQA2TREQNRI2T2RPC
EQNRI2…2RL = biological target: EQNRI2…2RL
CAPLRK2…2TSTSPTRC = biological target: CAPLRK2…2TSTSPTRC
[22] = biological target: CI2RPHQI2…2…
[23] = biological target: S2…2…
VPE2LS2…2R = biological target: VPE2LS2…2R
[24] = biological target: C2T2RPGWY2…2…
…22SK2CQA2TREQNRI2T2RPC = biological target: …22SK2CQA2TREQNRI2T2RPC
[25] = biological target: 2…; remark: listed apart in the source
[26] = biological target: CQTAQM22SK2…2…
…2SK2SPGQ [27] = biological target: …2SK2SPGQ; remark: listed apart in the source
…2TSTSPTRC [28] = biological target: …2TSTSPTRC; remark: listed apart in the source

DI2…, sequence (peptide, as listed by the source): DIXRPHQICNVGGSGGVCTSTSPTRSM
…2R, sequence (peptide, as listed by the source): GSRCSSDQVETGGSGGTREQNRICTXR
QEGCRL2…, sequence (peptide, as listed by the source): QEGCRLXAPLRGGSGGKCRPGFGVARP

**Q.** With agonistic TNFR2 antibody MR2-1 as the substance, how does the Raw luminescence data [1] read?
**A.** Its Raw luminescence data is 174.

**Q.** What about the Raw luminescence data (2LSCGSR2…2T) of the same substance?
**A.** The Raw luminescence data was 176.

**Q.** What about the Raw luminescence data (…2R) of the same substance?
**A.** The Raw luminescence data was 180.

**Q.** And the Raw luminescence data [2]?
**A.** The Raw luminescence data was 190.

**Q.** And the Raw luminescence data [3]?
**A.** Its Raw luminescence data is 173.

**Q.** And the Raw luminescence data (2…2TREQNRIC)?
**A.** Its Raw luminescence data is 184.

**Q.** And the Raw luminescence data (V2…2NV)?
**A.** Its Raw luminescence data is 177.

**Q.** What about the Raw luminescence data [4] of the same substance?
**A.** The Raw luminescence data was 191.

**Q.** And the Raw luminescence data [5]?
**A.** The Raw luminescence data was 180.

**Q.** And the Raw luminescence data (S2…2RPGW)?
**A.** The Raw luminescence data was 177.

**Q.** And the Raw luminescence data (KQEG2…2APGTFSN)?
**A.** The Raw luminescence data was 180.

**Q.** What about the Raw luminescence data [6] of the same substance?
**A.** The Raw luminescence data was 173.

**Q.** And the Raw luminescence data (LS2…2…2)?
**A.** Its Raw luminescence data is 187.

**Q.** What about the Raw luminescence data (NRI2…2RL) of the same substance?
**A.** The Raw luminescence data was 184.

**Q.** And the Raw luminescence data (2TREQNRI2…2RL)?
**A.** The Raw luminescence data was 186.

**Q.** And the Raw luminescence data [7]?
**A.** Its Raw luminescence data is 186 and 181.

**Q.** And the Raw luminescence data [8]?
**A.** Its Raw luminescence data is 187.

**Q.** And the Raw luminescence data [9]?
**A.** Its Raw luminescence data is 180.

**Q.** What about the Raw luminescence data (…2LS2…2TSTSPTRC) of the same substance?
**A.** The Raw luminescence data was 188.

**Q.** What about the Raw luminescence data [10] of the same substance?
**A.** The Raw luminescence data was 189.

**Q.** What about the Raw luminescence data [11] of the same substance?
**A.** Its Raw luminescence data is 176.

**Q.** What about the Raw luminescence data (CGSR2…2) of the same substance?
**A.** The Raw luminescence data was 172.

**Q.** What about the Raw luminescence data [12] of the same substance?
**A.** The Raw luminescence data was 191.

**Q.** And the Raw luminescence data (CTV2DS2…2TSTSPTRC)?
**A.** The Raw luminescence data was 182.

**Q.** What about the Raw luminescence data [13] of the same substance?
**A.** Its Raw luminescence data is 179.

**Q.** What about the Raw luminescence data [14] of the same substance?
**A.** Its Raw luminescence data is 181.

**Q.** And the Raw luminescence data (CG2RL2APLRK2…22SK2C)?
**A.** The Raw luminescence data was 183.

**Q.** What about the Raw luminescence data (2LS2…2R) of the same substance?
**A.** Its Raw luminescence data is 181.

**Q.** And the Raw luminescence data (…22SK2CNASMDAV2TSTSPTRC)?
**A.** Its Raw luminescence data is 173.

**Q.** What about the Raw luminescence data [15] of the same substance?
**A.** Its Raw luminescence data is 181.

**Q.** What about the Raw luminescence data [16] of the same substance?
**A.** Its Raw luminescence data is 175.

**Q.** And the Raw luminescence data [17]?
**A.** Its Raw luminescence data is 181.

**Q.** What about the Raw luminescence data (CTSSTDI2RPHQI2…2TSTSPTRC) of the same substance?
**A.** The Raw luminescence data was 181.

**Q.** What about the Raw luminescence data (…2SK2SPGQ [18]) of the same substance?
**A.** The Raw luminescence data was 181 and 173.

**Q.** And the Raw luminescence data (…2TSTSPTRC [19])?
**A.** The Raw luminescence data was 172.

**Q.** What about the Raw luminescence data (…2N) of the same substance?
**A.** Its Raw luminescence data is 175.

**Q.** And the Raw luminescence data (CQA2TREQNRI2T2…2RLC)?
**A.** Its Raw luminescence data is 178.

**Q.** And the Raw luminescence data (CQTAQM22SK2…2TSTSPTRC)?
**A.** Its Raw luminescence data is 164.

**Q.** And the Raw luminescence data [20]?
**A.** The Raw luminescence data was 159.

**Q.** What about the Raw luminescence data (…2TREQNRI2T2RPC) of the same substance?
**A.** Its Raw luminescence data is 163.

**Q.** What about the Raw luminescence data (QNRI2…2R) of the same substance?
**A.** The Raw luminescence data was 170.

**Q.** And the Raw luminescence data [21]?
**A.** The Raw luminescence data was 158.

**Q.** What about the Raw luminescence data (EQNRI2…2RL) of the same substance?
**A.** The Raw luminescence data was 159.

**Q.** What about the Raw luminescence data (CAPLRK2…2TSTSPTRC) of the same substance?
**A.** Its Raw luminescence data is 167.

**Q.** What about the Raw luminescence data [22] of the same substance?
**A.** Its Raw luminescence data is 165.

**Q.** And the Raw luminescence data [23]?
**A.** The Raw luminescence data was 171.

**Q.** And the Raw luminescence data (VPE2LS2…2R)?
**A.** The Raw luminescence data was 170.

**Q.** What about the Raw luminescence data [24] of the same substance?
**A.** The Raw luminescence data was 161.

**Q.** And the Raw luminescence data (…22SK2CQA2TREQNRI2T2RPC)?
**A.** Its Raw luminescence data is 158.

**Q.** What about the Raw luminescence data [25] of the same substance?
**A.** The Raw luminescence data was 170.

**Q.** What about the Raw luminescence data [26] of the same substance?
**A.** Its Raw luminescence data is 161.

**Q.** What about the Raw luminescence data (…2SK2SPGQ [27]) of the same substance?
**A.** Its Raw luminescence data is 163 and 156.

**Q.** And the Raw luminescence data (…2TSTSPTRC [28])?
**A.** Its Raw luminescence data is 159.
